Assay [1] concerns the target T1, recombinant human CD122 (human, UniProt P14784 27-239, limits assumed).
T1 construct: also called IL-2Rβ
T1 sequence (looked up): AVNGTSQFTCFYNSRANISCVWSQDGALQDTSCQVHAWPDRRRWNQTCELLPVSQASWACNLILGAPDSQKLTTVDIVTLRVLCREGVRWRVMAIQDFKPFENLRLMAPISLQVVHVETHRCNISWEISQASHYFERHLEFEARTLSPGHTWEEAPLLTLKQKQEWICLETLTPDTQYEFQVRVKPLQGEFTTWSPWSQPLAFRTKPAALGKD
The experiment in a line: GCI (WAVEsystem). How it is done: (§1) Binding affinity and kinetics constants of humanized CD122/CD132 FIT-Ig were determined using a label-free biosensor on WAVEsystem (Creoptix AG, Switzerland) by grating-coupled interferometry (GCI). Briefly, a PCP WAVEchip (Creoptix AG) was pre-immobilized with goat anti-human IgG Fc antibody to a density of 3830 pg/mm² by amine coupling, and used to capture humanized CD122/CD132 FIT-Ig generated from Example 3.2.1 to a density of ˜90 pg/mm², then exposed to recombinant human/cyno CD122 or CD132 serially diluted (3× dilutions from 200 nM to […] for human CD122, human CD132 and cyno CD132, respectively; and from 1000 nM to 1.37 nM for cyno CD122) in 1X HBS-EP+ buffer (Cytiva, Cat No. BR100669) by injection at 60 μL/min for 250s to assess association, followed by 1200s dissociation. After each round of association and dissociation, WAVEchip surface was regenerated by subject to pH 1.5 Glycine-HCl buffer injection at 60 μL/min for 120s. Sensorgrams were recorded at 25° C., the data were analyzed on WAVEcontrol (Creoptix AG) and double referenced by subtracting the signals from blank injections and the reference channel. A Langmuir 1:1 model was used for data fitting.

The target in assay [2] is T2, recombinant human CD132 (human, UniProt P31785 23-262, limits assumed).
T2 construct: also called IL-2Rγ
T2 sequence (looked up): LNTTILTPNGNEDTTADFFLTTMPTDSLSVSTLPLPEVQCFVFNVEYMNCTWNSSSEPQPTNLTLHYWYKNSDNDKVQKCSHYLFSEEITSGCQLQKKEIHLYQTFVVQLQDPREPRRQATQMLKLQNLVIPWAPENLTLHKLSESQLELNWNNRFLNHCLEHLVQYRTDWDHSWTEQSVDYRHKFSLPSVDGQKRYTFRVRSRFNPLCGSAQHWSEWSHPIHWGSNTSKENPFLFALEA
As to the kind of experiment: GCI (WAVEsystem). How it is done: as §1

Assay [3] addresses T3, CD122/CD132 complex on HEK-Blue IL-2 cells (UniProt P14784 27-551; P31785 23-369, limits assumed).
T3 sequence (looked up) 1: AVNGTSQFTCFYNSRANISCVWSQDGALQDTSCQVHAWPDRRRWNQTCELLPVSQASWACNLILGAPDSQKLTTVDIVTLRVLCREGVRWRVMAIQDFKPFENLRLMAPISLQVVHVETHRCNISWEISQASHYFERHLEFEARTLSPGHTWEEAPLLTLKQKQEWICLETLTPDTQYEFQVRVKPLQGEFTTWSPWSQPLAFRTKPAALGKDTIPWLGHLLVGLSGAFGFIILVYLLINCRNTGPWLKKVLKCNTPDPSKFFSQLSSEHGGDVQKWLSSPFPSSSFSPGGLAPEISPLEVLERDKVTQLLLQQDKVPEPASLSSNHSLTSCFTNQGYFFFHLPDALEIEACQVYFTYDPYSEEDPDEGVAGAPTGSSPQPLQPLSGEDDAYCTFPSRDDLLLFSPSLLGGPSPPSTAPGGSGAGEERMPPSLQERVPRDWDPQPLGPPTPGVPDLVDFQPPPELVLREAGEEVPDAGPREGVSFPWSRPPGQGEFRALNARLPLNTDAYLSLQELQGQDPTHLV
T3 sequence (looked up) 2: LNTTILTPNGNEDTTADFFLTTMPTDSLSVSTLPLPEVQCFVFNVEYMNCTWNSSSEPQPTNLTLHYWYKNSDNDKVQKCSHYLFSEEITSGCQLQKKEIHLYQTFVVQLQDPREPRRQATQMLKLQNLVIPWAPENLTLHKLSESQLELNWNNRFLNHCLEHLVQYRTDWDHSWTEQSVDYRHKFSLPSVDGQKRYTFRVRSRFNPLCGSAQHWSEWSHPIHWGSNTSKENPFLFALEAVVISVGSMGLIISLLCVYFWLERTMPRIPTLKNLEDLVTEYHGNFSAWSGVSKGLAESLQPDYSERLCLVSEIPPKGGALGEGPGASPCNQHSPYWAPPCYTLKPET
As to the kind of experiment: cell-based or functional assay.

B1: huFIT2019-86b-27 (bispecific antibody, human IgG1, kappa, L234A L235A)
chain 1: not shown
chain 2: EVQLVQSGAEVKKPGASVKVSCKASGYTFTDYVISWVKQATGQGLEWIGEIYPGDAQTYYNEMFKGRATLTADKSISTAYMELSSLRSEDTAVYYCARGSYTYDNYAMDFWGQGTTVTVSSASTKGPSVFPLAPSSKSTSGGTAALGCLVKDYFPEPVTVSWNSGALTSGVHTFPAVLQSSGLYSLSSVVTVPSSSLGTQTYICNVNHKPSNTKVDKKVEPKSC
chain 3: not shown
As for B1, the binding result in assay [1] and in assay [2] was “binds” in each case.

B2: huFIT2019-86b-35 (bispecific antibody, human IgG1, kappa, L234A L235A)
chain 1: not shown
chain 2: EVQLVQSGAEVKKPGASVKVSCKASGYTFTDYVISWVRQATGQGLEWMGEIYPGDGNTYYNEMFKGRVTMTRDTSISTAYMELSSLRSEDTAVYYCARGSYTYDNYAMDFWGQGTTVTVSSASTKGPSVFPLAPSSKSTSGGTAALGCLVKDYFPEPVTVSWNSGALTSGVHTFPAVLQSSGLYSLSSVVTVPSSSLGTQTYICNVNHKPSNTKVDKKVEPKSC
chain 3: not shown
With B2, the binding result in assay [2] was “binds”. For the same molecule, the “EC50 from SEAP reporter gene assay” value in assay [3] is 0.163 nM.

B3: huFIT2019-86b-36 (bispecific antibody, human IgG1, kappa, L234A L235A)
chain 1: not shown
chain 2: EVQLVQSGAEVKKPGASVKVSCKASGYTFTDYVISWVRQATGQGLEWMGEIYPGDGNTYYNEMFKGRVTMTRDTSISTAYMELSSLRSEDTAVYYCARGSYTYDNYAMDFWGQGTTVTVSSASTKGPSVFPLAPSSKSTSGGTAALGCLVKDYFPEPVTVSWNSGALTSGVHTFPAVLQSSGLYSLSSVVTVPSSSLGTQTYICNVNHKPSNTKVDKKVEPKSC
chain 3: not shown
Regarding B3, the binding result in assay [1] and in assay [2] was “binds” each time.

B4: huFIT2019-86b-45 (bispecific antibody, human IgG1, kappa, L234A L235A)
chain 1: not shown
chain 2: EVQLVQSGAEVKKPGASVKVSCKASGYTFTDYVISWVRQATGQGLEWMGEIYPGDAQTYYNEMFKGRVTMTRDTSISTAYMELSSLRSEDTAVYYCARGSYTYDNYAMDFWGQGTTVTVSSASTKGPSVFPLAPSSKSTSGGTAALGCLVKDYFPEPVTVSWNSGALTSGVHTFPAVLQSSGLYSLSSVVTVPSSSLGTQTYICNVNHKPSNTKVDKKVEPKSC
chain 3: not shown
As for B4, the binding result in assay [2] is “binds”. Moreover, the “EC50 from SEAP reporter gene assay” value in assay [3] came to 0.106 nM.

B5: huFIT2019-86b-46 (bispecific antibody, human IgG1, kappa, L234A L235A)
chain 1: not shown
chain 2: EVQLVQSGAEVKKPGASVKVSCKASGYTFTDYVISWVRQATGQGLEWMGEIYPGDANTYYNEMFKGRVTMTRDTSISTAYMELSSLRSEDTAVYYCARGSYTYDNYAMDFWGQGTTVTVSSASTKGPSVFPLAPSSKSTSGGTAALGCLVKDYFPEPVTVSWNSGALTSGVHTFPAVLQSSGLYSLSSVVTVPSSSLGTQTYICNVNHKPSNTKVDKKVEPKSC
chain 3: not shown
On to B5, for which the binding result in assay [2] was “binds”. Also, the “EC50 from SEAP reporter gene assay” value in assay [3] came to 0.119 nM.

B6: huFIT2019-86b-29 (bispecific antibody, human IgG1, kappa, L234A L235A)
chain 1: not shown
chain 2: EVQLVQSGAEVKKPGASVKVSCKASGYTFTDYVISWVRQATGQGLEWMGEIYPGDAQTYYNEMFKGRVTMTRDTSISTAYMELSSLRSEDTAVYYCARGSYTYDNYAMDFWGQGTTVTVSSASTKGPSVFPLAPSSKSTSGGTAALGCLVKDYFPEPVTVSWNSGALTSGVHTFPAVLQSSGLYSLSSVVTVPSSSLGTQTYICNVNHKPSNTKVDKKVEPKSC
chain 3: not shown
In the case of B6, the binding result in assay [1] and in assay [2] was “binds” throughout.

B7: huFIT2019-86b-32 (bispecific antibody, human IgG1, kappa, L234A L235A)
chain 1: not shown
chain 2: EVQLVQSGAEVKKPGASVKVSCKASGYTFTDYVISWVRQATGQGLEWMGEIYPGDGNTYYNEMFKGRVTMTRDTSISTAYMELSSLRSEDTAVYYCARGSYTYDNYAMDFWGQGTTVTVSSASTKGPSVFPLAPSSKSTSGGTAALGCLVKDYFPEPVTVSWNSGALTSGVHTFPAVLQSSGLYSLSSVVTVPSSSLGTQTYICNVNHKPSNTKVDKKVEPKSC
chain 3: not shown
notes: also called huFIT9-86b-32
For B7, the binding result in assay [2] was “binds”. The “EC50 from SEAP reporter gene assay” value in assay [3] came to 0.163 nM.

B8: huFIT2019-86b-31 (bispecific antibody, human IgG1, kappa, L234A L235A)
chain 1: not shown
chain 2: EVQLVQSGAEVKKPGASVKVSCKASGYTFTDYVISWVRQATGQGLEWMGEIYPGDAQTYYNEMFKGRVTMTRDTSISTAYMELSSLRSEDTAVYYCARGSYTYDNYAMDFWGQGTTVTVSSASTKGPSVFPLAPSSKSTSGGTAALGCLVKDYFPEPVTVSWNSGALTSGVHTFPAVLQSSGLYSLSSVVTVPSSSLGTQTYICNVNHKPSNTKVDKKVEPKSC
chain 3: not shown
Regarding B8, the binding result in assay [1] and in assay [2] was “binds” in each case.

B9: huFIT2019-86b-34 (bispecific antibody, human IgG1, kappa, L234A L235A)
chain 1: not shown
chain 2: EVQLVQSGAEVKKPGASVKVSCKASGYTFTDYVISWVRQATGQGLEWMGEIYPGDGNTYYNEMFKGRVTMTRDTSISTAYMELSSLRSEDTAVYYCARGSYTYDNYAMDFWGQGTTVTVSSASTKGPSVFPLAPSSKSTSGGTAALGCLVKDYFPEPVTVSWNSGALTSGVHTFPAVLQSSGLYSLSSVVTVPSSSLGTQTYICNVNHKPSNTKVDKKVEPKSC
chain 3: not shown
Take B9: the binding result in assay [1] and in assay [2] was “binds” in each case.

B10: huFIT2019-86b-47 (bispecific antibody, human IgG1, kappa, L234A L235A)
chain 1: not shown
chain 2: EVQLVQSGAEVKKPGASVKVSCKASGYTFTDYVISWVRQATGQGLEWMGEIYPGEGNTYYNEMFKGRVTMTRDTSISTAYMELSSLRSEDTAVYYCARGSYTYDNYAMDFWGQGTTVTVSSASTKGPSVFPLAPSSKSTSGGTAALGCLVKDYFPEPVTVSWNSGALTSGVHTFPAVLQSSGLYSLSSVVTVPSSSLGTQTYICNVNHKPSNTKVDKKVEPKSC
chain 3: not shown
For B10, in assay [2], the binding result is on record as “binds”. Besides, the “EC50 from SEAP reporter gene assay” value in assay [3] turned out to be 0.121 nM.

B11: huFIT2019-86b-28 (bispecific antibody, human IgG1, kappa, L234A L235A)
chain 1: not shown
chain 2: EVQLVQSGAEVKKPGASVKVSCKASGYRFSDYVISWVKQATGQGLEWIGEIYPGDAQTYYNEMFKGRATLTADKSISTAYMELSSLRSEDTAVYFCARGSYTYDNYAMDFWGQGTTVTVSSASTKGPSVFPLAPSSKSTSGGTAALGCLVKDYFPEPVTVSWNSGALTSGVHTFPAVLQSSGLYSLSSVVTVPSSSLGTQTYICNVNHKPSNTKVDKKVEPKSC
chain 3: not shown
Consider B11, for which the binding result in assay [1] and in assay [2] was “binds” in each case.

B12: huFIT2019-86b-33 (bispecific antibody, human IgG1, kappa, L234A L235A)
chain 1: not shown
chain 2: EVQLVQSGAEVKKPGASVKVSCKASGYTFTDYVISWVRQATGQGLEWMGEIYPGDGNTYYNEMFKGRVTMTRDTSISTAYMELSSLRSEDTAVYYCARGSYTYDNYAMDFWGQGTTVTVSSASTKGPSVFPLAPSSKSTSGGTAALGCLVKDYFPEPVTVSWNSGALTSGVHTFPAVLQSSGLYSLSSVVTVPSSSLGTQTYICNVNHKPSNTKVDKKVEPKSC
chain 3: not shown
On to B12, for which the binding result in assay [1] and in assay [2] was “binds” each time.

B13: huFIT2019-86b-30 (bispecific antibody, human IgG1, kappa, L234A L235A)
chain 1: not shown
chain 2: EVQLVQSGAEVKKPGASVKVSCKASGYTFTDYVISWVRQATGQGLEWMGEIYPGDAQTYYNEMFKGRVTMTRDTSISTAYMELSSLRSEDTAVYYCARGSYTYDNYAMDFWGQGTTVTVSSASTKGPSVFPLAPSSKSTSGGTAALGCLVKDYFPEPVTVSWNSGALTSGVHTFPAVLQSSGLYSLSSVVTVPSSSLGTQTYICNVNHKPSNTKVDKKVEPKSC
chain 3: not shown
Consider B13, for which the binding result in assay [1] and in assay [2] was “binds” in each case.

The record behind these values is patent publication US20250002594A1 (SHANGHAI EPIMAB BIOTHERAPEUTICS, published 2025).
